Patent US20150307600A1

Target: synthetic biotinylated and pegylated phospho-tau peptide RSGYSSPG(pS)PG(pT)PGSRSR-OH (human)
Assay: MSD electrochemiluminescence competition on the biotinylated phospho-tau peptide (SEQ ID NO:39) coated on streptavidin plates; competitor: SULFO-TAG-labelled AT8

- IC50 (read off the curve): 0.04 µM
Substance: AT8 anti-tau antibody (ThermoScientific, Rockford, Ill.)
